Source: article doi:10.1101/2025.01.09.632085

Molecular target: thrombin (UniProt P00734;P00734 328-363;364-622)
Assay: BLI

B1: HD1 (structured_DNA)
DNA: GGTTGGTGTGGTTGG
In the case of B1, the Kd is reported as 0.032 ± 0.004 µM.
